This is an account of results in patent EP4578463A1, “ENDO-180 TARGETED ANTIBODY-DRUG CONJUGATES” (Oncomatryx Biopharma, S.L., priority 2023, dated 2025).

In assay [1] the target is T1, human Endo180-moFc domains I-III (aa 31-370) (human, UniProt Q9UBG0 31-370).
T1 construct: also called huEndo180 (DI-III); huEndo180-moFc DI-III; not shown: murine Fc domain
T1 sequence: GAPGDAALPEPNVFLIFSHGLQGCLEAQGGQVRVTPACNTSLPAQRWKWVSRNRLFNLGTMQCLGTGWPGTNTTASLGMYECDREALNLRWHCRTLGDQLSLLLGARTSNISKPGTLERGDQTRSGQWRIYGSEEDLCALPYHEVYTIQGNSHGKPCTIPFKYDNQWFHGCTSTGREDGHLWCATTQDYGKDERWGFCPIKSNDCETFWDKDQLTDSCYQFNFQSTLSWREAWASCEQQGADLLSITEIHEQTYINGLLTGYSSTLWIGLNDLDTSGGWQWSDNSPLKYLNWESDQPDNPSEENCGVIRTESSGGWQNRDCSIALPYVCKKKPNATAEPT
The assay is described as follows: ELISA, immobilized huEndo180-moFc.

The target in assay [2] is T2, human Endo180-moFc DI-DIV variant region 1 (N233E, D234G, T237S, Q243P, D246S) (human, UniProt Q9UBG0 31-513).
T2 construct: Domain III residues swapped to those of MRC1; not shown: murine Fc
T2 chain: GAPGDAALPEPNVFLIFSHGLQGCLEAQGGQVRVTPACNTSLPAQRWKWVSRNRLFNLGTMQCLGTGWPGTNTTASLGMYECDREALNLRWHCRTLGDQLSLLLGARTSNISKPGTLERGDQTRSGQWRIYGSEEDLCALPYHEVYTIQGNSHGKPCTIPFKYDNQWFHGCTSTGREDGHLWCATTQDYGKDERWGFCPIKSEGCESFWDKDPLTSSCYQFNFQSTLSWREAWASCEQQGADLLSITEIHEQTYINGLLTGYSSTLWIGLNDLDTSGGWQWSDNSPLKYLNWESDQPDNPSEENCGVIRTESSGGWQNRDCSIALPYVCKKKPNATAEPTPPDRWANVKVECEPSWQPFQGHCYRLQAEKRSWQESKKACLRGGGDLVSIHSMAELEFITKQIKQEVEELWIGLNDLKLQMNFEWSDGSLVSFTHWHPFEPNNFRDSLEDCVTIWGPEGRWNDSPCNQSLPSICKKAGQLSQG
Description: ELISA, 10 nM IgG on immobilized variant (3 µg/ml).

In assay [3] the target is T3, human Endo180-moFc DI-DIV variant region 2 (Q254K, T256A, S258T, E261Q) (human, UniProt Q9UBG0 31-513).
T3 construct: not shown: murine Fc
T3 chain: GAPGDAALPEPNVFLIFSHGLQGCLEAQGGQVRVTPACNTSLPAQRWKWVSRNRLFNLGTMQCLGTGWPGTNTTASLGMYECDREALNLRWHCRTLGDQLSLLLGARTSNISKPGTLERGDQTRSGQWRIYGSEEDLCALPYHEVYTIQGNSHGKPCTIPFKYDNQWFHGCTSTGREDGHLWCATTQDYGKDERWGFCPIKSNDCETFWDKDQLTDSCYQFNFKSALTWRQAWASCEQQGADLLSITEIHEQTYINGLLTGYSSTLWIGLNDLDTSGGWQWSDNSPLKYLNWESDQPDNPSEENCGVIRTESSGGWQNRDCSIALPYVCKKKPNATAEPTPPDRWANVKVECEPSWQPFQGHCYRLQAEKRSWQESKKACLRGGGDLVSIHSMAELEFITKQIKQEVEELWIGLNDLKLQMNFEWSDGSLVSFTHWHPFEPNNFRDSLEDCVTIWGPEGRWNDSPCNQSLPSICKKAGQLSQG
Description: ELISA, 10 nM IgG on immobilized variant (3 µg/ml).

The target in assay [4] is T4, human Endo180-moFc DI-DIV variant region 4 (D304S, T305F, S306N) (human, UniProt Q9UBG0 31-513).
T4 construct: not shown: murine Fc
T4 chain: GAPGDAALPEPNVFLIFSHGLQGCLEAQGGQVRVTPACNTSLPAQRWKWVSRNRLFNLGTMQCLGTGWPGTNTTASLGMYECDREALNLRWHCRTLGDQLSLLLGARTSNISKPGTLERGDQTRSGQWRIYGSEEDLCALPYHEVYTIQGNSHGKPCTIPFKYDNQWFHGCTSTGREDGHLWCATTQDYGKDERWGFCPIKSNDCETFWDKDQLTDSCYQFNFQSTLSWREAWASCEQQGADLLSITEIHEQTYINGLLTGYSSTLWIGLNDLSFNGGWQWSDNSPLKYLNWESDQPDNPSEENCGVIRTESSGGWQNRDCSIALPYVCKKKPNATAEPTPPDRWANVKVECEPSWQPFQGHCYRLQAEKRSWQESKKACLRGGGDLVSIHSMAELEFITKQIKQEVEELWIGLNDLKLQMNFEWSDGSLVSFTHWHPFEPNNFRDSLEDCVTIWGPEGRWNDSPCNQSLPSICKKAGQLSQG
The assay is described as follows: ELISA, 10 nM IgG on immobilized variant (3 µg/ml).

B1: Human IgG1 G7V with a wildtype γ1 heavy chain (antibody, V domains shown)
VH: EVQLVESGGGLVKPGGSLRLSCAASGFTFSSYSMNWVRQAPGKGLEWVANIKPDGSERHSVDSVKGRFTISRDNSKNSLYLQMNSLRAEDTAVYYCARPGAGRLDYWGQGTLVTVSS
VL: SSELTQDPAVSVALGQTVRITCQGDSLRSYYASWYQQKPGQAPVLVVYGKNNRPSGIPDRFSGSSSGNTASLTITGAQAEDEADYYCNSRDSSGNPWAFGGGTKVTVLG
notes: Naked antibody, made in HEK293-6E (lab scale) or CHO (1 L scale); also called IgG G7V; OMTX007-G7V
As for B1, in assay [1], the response was half-maximal at 0.5 nM (EC50). Further, the binding result in assay [2], in assay [3] and in assay [4] was “binds” throughout.
